Data on eleven molecules can be found in US12590147 (OBLIQUE THERAPEUTICS, dated 2026).

B1: 15D8-1 (antibody, V domains shown)
VH: DVQLVESGGGLVQPGGSRKLSCAASGFTFSSFGMHWVRQAPEKGLEWVAYISSGSSTIYYADTVKGRFTISRDNPKNTLFLQMTSLRSEDTAMYYCARRGNAMDYWGQGTSVTVSS
VL: NIMMTQSPSSLAVSAGEKVTMSCKSSQSVLYSSNQKNYLAWYQQKPGQSPKLLIYWASTRESGVPDRFTGSGSGTDFTLTISSVQAEDLAVYYCHQYFSSWTFGGGTKLEIK
B2: 41B5-1 (antibody, V domains shown)
VH: DVQLQESGPGLVKPSQSLSLTCTVTDYSLTSDYAWNWIRQFPGNKLEWMGYITYSGYTNFNPSLRSRISITRDTSKTQFFLQLNSVTAEDTATYYCVRSTTYFDYWGQGTTLTVSS
VL: DVLMTQTPLSLPVSLGDQASISCRSSQSIVHSDGNTYLEWYLQKPGQSPKLLIYKVSNRFSGVPDRFSGSGSGTDFTLKINRVEAEDLGIYYCFQGSHVPPTFGGGTKLEIK
B3: 46B7-1 (antibody, V domains shown)
VH: DVQLQESGPGLVKPSQSLSLTCTVTDYSLTSDYAWNWIRQFPGNKLEWMGYITYSGYTNYNPSLKSRVSITRDTSKTQFFLQLNSVTTEDTATYYCARSTAYFDYWGQGTTLTVSS
VL: DVLMTQTPLSLPVSLGDQASISCRSSQSVIHSDGNTYLEWYLQKPGQSPKLLIYKVSNRFSGVPDRFSGSGSGTDFTLKISRVEAEDLGVYYCFQGSHVPPTFGGGTKLEIK
B4: 16F1-1 (antibody, IgG2a, V domains shown)
VH: EVQLVESGGGLVQPKGSLKLSCAASGFTFNTYAMHWVRQAPGKGLEWVARIRSKSSNYATYYADSVKDRFTISRDDSQSMVYLQMNNLKTEDTAMYYCVRKGDGYDGWFAYWGQGTLVTVSA
VL: DIQMTQSPASLSASVGETVTITCRPSGNIHNYLVWYQQKQGKSPQVLVYNSKTLADGVPSRFSGSGSGTQYSLKINSLQPEDFGTYYCQHFWSTPLTFGAGTKLELK
B5: 17E11-1 (antibody, IgG1, V domains shown)
VH: EVQLLQSVAELVRPGASVKLSCTASGFNIKNTFIHWLKQRPEQGLEWIGKIDPANGNIRCAPKFQGKATITADTSSNTAYLQLSSLTSGDTAIYYCGRGTMLVGHFYWYFDVWGTGTTVTVSS
VL: DIVMSQSPSSLAVSVGEKITMSCKSSQSLLYSSNQKNYLAWYQQKPGQSPKLLIYWASTRESGVPDRFSGSGSGTDFTLTISSVKTEDLAIFYCQQYYYYPPTFGAGTKLELR
B6: 17E9-1 (antibody, IgG2b, V domains shown)
VH: EVQLLQSVAELVRPGASVKLSCTASGFNIKNTFIHWLKQRPEQGLEWIGKIDPANGNIRCAPKFQGKATITADTSSNTAYLQLSSLTSGDTAIYYCGRGTMLVGHFYWYFDVWGTGTTVTVSS
VL: DIVMSQSPSSLAVSVGEKITMSCKSSQSLLYSSNQKNYLAWYQQKPGQSPKLLIYWASTRESGVPDRFSGSGSGTDFTLTISSVKTEDLAIFYCQQYYYYPPTFGAGTKLELR
B7: 12C9-1 (antibody, IgG2b, V domains shown)
VH: EVQLQQSGPELVKPGTSVKISCKASGYTFTGYYMNWVKQSHGKSLEWIGDINPNNGGTDYNRKFKGKATLTVDKSSSTAYMEVRSLTSEDSAVYYCAKDFAVWGTGTTVTVSS
VL: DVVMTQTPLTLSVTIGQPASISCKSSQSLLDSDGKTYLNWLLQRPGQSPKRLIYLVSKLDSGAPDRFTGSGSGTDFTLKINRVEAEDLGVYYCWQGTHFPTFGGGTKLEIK
notes: mouse monoclonal, IgG2b/kappa
B8: 12G6-1 (antibody, IgG1, V domains shown)
VH: EVQLVESGGDLVNPGGSLKLSCAASGFTISNYGMSWVRQTPDKRLEWVAIIIRDGGYTYYPDSVKGRFTISRDSAKNTLYLQMSSLKSEDTAMYYCARHEYYFDFWGQGTTLTVSS
VL: DVLMTQTPLSLPVSLGDQASISCRSSQTILHSDGNTYLEWYLQKPGQSPKLLIYKVSNRFSGVPDRFSGSGSGTDFTLKISRVEAEDLGVYYCSQGSHFPPTFGGGTKVEIK
notes: mouse monoclonal, IgG1/kappa
B9: OT-Ab2 (antibody, IgG1, V domains shown)
VH: EVKLLESGGGLVQPGGSLKLSCAASGFDFRRYWMSWVRQAPGKGLEWIGEINPDSSTINYTPSLKDEFIISRDNAKNTLYLQMSKVRSEDTVLYYCSRGGDYWGQGTSVTVSS
VL: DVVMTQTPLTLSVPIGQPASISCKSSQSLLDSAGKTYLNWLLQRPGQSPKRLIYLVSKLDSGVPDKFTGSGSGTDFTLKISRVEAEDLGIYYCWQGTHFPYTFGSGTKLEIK
notes: mouse monoclonal, IgG1/kappa
B10: OT-Ab3 (antibody, IgG1, V domains shown)
VH: EVNLLESGGGLVQPGGSLKLSCAASGFDFRRYWMSWVRQAPGKGLEWIGEINPDSSTINYTPSLKDEFIISRDNAKNTLYLQMSKVRSEDTVLYYCSRGGDYWGQGTSVTVSS
VL: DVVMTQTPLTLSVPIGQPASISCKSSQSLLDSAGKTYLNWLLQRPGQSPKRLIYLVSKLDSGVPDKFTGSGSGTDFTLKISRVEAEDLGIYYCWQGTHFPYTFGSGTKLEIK
notes: mouse monoclonal, IgG1/kappa
B11: OT-Ab1 (antibody, IgG2b, V domains shown)
VH: EVQLQQSGAELVKPGASVKLSCTASGFNIKDTYIHWVKQRPEQGLEWIGRIDPANGNTRYDPKFQGKATITADTSSNTAYLQLSSLTSEDTAVYYCAKVSGDRRFYWYFDVWGAGTTVTVSS
VL: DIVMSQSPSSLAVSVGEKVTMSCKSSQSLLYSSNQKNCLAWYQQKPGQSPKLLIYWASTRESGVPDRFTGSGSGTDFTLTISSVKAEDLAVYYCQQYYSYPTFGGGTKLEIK
notes: mouse monoclonal, IgG2b/kappa

The target of the first assay is T1, human TRPV1 (transient receptor potential vanilloid type 1) (human, UniProt Q8NER1 1-839). In words: cell-based or functional assay.
T1 sequence (Q8NER1 whole entry): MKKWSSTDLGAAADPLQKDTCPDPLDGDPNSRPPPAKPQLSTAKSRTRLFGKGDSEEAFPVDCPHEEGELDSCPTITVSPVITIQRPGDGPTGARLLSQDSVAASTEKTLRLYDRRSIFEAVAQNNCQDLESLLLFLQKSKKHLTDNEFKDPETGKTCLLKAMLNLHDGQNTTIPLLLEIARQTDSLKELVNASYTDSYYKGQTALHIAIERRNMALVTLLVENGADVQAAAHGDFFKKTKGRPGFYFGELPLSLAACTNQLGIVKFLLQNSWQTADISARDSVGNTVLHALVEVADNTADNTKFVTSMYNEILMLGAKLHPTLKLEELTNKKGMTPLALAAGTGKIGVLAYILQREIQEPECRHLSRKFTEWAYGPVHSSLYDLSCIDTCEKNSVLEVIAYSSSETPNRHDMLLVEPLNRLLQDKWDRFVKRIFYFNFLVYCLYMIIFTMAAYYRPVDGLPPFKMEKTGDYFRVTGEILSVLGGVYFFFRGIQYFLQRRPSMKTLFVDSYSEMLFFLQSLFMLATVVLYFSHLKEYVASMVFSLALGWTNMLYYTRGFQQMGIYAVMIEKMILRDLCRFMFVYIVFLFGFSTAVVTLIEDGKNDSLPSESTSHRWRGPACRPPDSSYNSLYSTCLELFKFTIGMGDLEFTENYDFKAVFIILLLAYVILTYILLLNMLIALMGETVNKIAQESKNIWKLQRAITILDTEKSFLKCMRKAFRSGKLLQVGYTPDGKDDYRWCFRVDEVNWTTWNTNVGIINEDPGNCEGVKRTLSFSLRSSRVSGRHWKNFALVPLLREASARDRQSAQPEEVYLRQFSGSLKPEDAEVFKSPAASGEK
Take B1: the “IC50 of inhibition of TRPV1-mediated capsaicin-induced Ca2+ uptake (FLIPR)” value is around 70 nM. On the same count and under the same terms, in the case of B2 it was around 170 nM. On the same count and under the same terms, in the case of B3 it was around 200 nM; in that of B4, around 215 nM. As to B5, the “IC50 of inhibition of TRPV1-mediated capsaicin-induced Ca2+ uptake (FLIPR)” value is around 230 nM. On the same count and under the same terms, in the case of B6 it was around 400 nM.

Another assay has as its target T1, human TRPV1 (transient receptor …). In words: FACS on CHO TRPV1 cells, purified antibody. As to the method:
For monoclonal antibody preparations for FACS analysis, CHO TRPV1 cells, HEK 293 cells or CHO S cells were incubated with 50 μl antibody preparation (serum, hybridoma supernatant or purified monoclonal antibody or control) for 40 min at room temperature, followed by 30 min incubation at room temperature with 100 μl secondary antibody (anti-mouse IgG, conjugated to fluorescent probe). Binding was assessed by measurement of fluorescence signal from cells and reported as mean fluorescence intensity (MFI). CHO TRPV1 cells are adherent Chinese hamster ovary (CHO) cells with a tetracycline regulated expression system (T-REx) of hTRPV1 (human TRPV1) as described elsewhere. Doxycycline was used to induce expression of TRPV1. CHO S cells and HEK 293 cells were used as negative control cells. CHO S cells are a high-density suspension-adapted cell type used as a tool for high level expression of recombinant protein, with little or no basal expression of TRPV1. […]
In the study described in the present example, 16 mouse monoclonal antibodies against human TRPV1, 32C8-1, 33C9-1, 34C11-1, 40B10-1, 41B5-1, 43D6-1, 44E8-1, 46B7-1, 46D9-1, 12C9-1, 12G6-1, 15D8-1, 16F1-1, 17E11-1, 17E9-1, 18E10-1, were produced using the hybridoma technology. Specificity of binding to hTRPV1 was determined using FACS, employing a CHO cell line with inducible hTRPV1 expression. […]
Consider B7, for which the binding result was “binds”.

For B8, the binding result is recorded as “binds”.

A further assay shares this target. The assay is described as follows: FACS on CHO cells with induced hTRPV1 expression. As to the method: For monoclonal antibody preparations, CHO-TRPV1 cells were incubated with 50 μl antibody preparation (serum, hybridoma supernatant or purified monoclonal antibody) for 30 min at 4° C., followed by 30 min incubation at 4° C. with 50 µl secondary antibody (anti-mouse IgG, conjugated to fluorescent probe). The negative control was secondary antibody only (anti-mouse IgG at […] in the 50 µL sample). Binding was assessed by measurement of fluorescence signal from cells and reported as mean fluorescence intensity (MFI). CHO-TRPV1 cells are adherent Chinese hamster ovary (CHO) cells with a tetracycline regulated expression system (T-REx) of hTRPV1 (human TRPV1) as described elsewhere. Doxycycline was used to induce expression of TRPV1 (denoted +TRPV1). Non-induced cells are denoted –TRPV1.
Three examples of mouse monoclonal antibodies against human TRPV1, OT-Ab1, OT-Ab2 and OT-Ab3, were produced using the hybridoma technology. Specificity of binding to hTRPV1 was determined using FACS, employing a CHO cell line with inducible hTRPV1 expression. OT-Ab1, OT-Ab2 and OT-Ab3 bound to hTRPV1-expressing cells but not to non-hTRPV1-expressing cells indicating strongly specific binding to hTRPV1 (FIG. 5).
For the molecule B9, the binding result is recorded as “binds”. With B10, the binding result is given as “binds”.

For B11, the binding result is “binds”.
